Assay: yeast display, Sf9 membrane polyspecificity reagent, FACS + sequencing; frameworks hold sequencing errors
How it was run: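 Synthetic nanobody libraries on Saccharomyces cerevisiae BJ5465 were galactose-induced for 36–48 hours, stained 1 hour at 4 °C with 10% biotinylated, detergent-solubilized Sf9 membrane reagent and enriched on streptavidin microbeads. FACS then separated cells into low and high (top ~1%) gates by anti-HA (expression) and streptavidin (reagent binding) fluorescence. Genes were colony-PCR amplified, MiSeq 2 × 250 sequenced and CDR-length filtered. A clone's polyreactivity label is that of its gate of origin.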

Sequence: QVQLVESGGGLVQAGGSLLLSCAASGSTFYLYAMGWYRQAPGKEMELVASISQSGGSTFYADSVKGRFTISRDNAKYTVYLQMNSLKPEDTAVYYCAADPNRSTDTVVPGFDYWGQGTQVTVSS
- polyreactivity (PSR sort gate): high polyreactivity

Sequence: HVQLQESGGGLVQARGSLRLSCAATGSIFYRLKMGWHRQAPGKERELVATIDPGSNTYYADSVKGSFTISRDNAKKTVYPQMYSLKPEDTAVYYCAVSAHWTIHYYYWGEGTQVTVSS
- polyreactivity (PSR sort gate): high polyreactivity

Sequence: QVQLVESGGGLVQAGGSLRLSCAASGSIFLRNAMGWYRQAPGKERELVAAITWDSGDTYYADSVQGRFTISRDNAKNTVYLQMNSLKPEDTAVYYCNTLGLSSDWGQGTQVTVSS
- polyreactivity (PSR sort gate): low polyreactivity

Sequence: QVQLGESGGGLVQAGGSLRLSCAASGIIFDTYAMGWYRQAPGKQRELVAVISTRGTSTYYADSVKGRFTISRDNAKNTVYLQMNSLKPEDTEVYYCNAFGRYSYPTFDYWGQGTQVTVSS
- polyreactivity (PSR sort gate): high polyreactivity

Sequence: QVQLVESGGGLVQAGGSLRLSCAASGSILYRYAMGWYRQAPGKERELVAGISKTGSSTYYADSVKGRFTISRDNAKNTVYLQMNSLKPEDTAVYYCNVRHGYSGKDYRYDYWGQGTQVTVSS
- polyreactivity (PSR sort gate): low polyreactivity

Sequence: QVQLVESGGGLVQAGGSLRLSCAASGFTYYAMGWYRQAPGKERELVAAITRGGSTYYADSVKGRFTISRDNAKNTVYLQMNSLKPEDTAVYYCAVLQRAARLGYNYWGQGTQVTVSS
- polyreactivity (PSR sort gate): high polyreactivity

Sequence: QVQLVESGGGLVQAGGSLRLSCAASGSTFPKNVMGWYRQAPGKERELVAAINYSGTSTYYADSVKGRFTISRDNAKNTVYLQMNSLKPEDTAVYYCAARFPLVRYNYWGQGTQVTVSS
- polyreactivity (PSR sort gate): high polyreactivity

Sequence: QVQLVESGGGLVQAGGSLRLICAASGSIFADYAMGWYRQAPGKERELVAAITGSGGRTYYADSVKGRFTISRDNAKNTVYLQMNSLKPEDTAVYYCAAYQVVWDPYTRYDYWGQGTQVTVSS
- polyreactivity (PSR sort gate): low polyreactivity

Sequence: QVQLVESGGGLVQAGGSLRLSCAASGFTFWIYAMGWYRQARGKEWELVAAISASGGYTRYADSVKGRFTISRDNAKNTVYLQMNSLKPEDTAVYYCAAYHGLRRGFDYWGEGTQVTVSS
- polyreactivity (PSR sort gate): high polyreactivity

Sequence: QVQLVESGGGLVQAGGSLRLSCAASGRTFHYYVMGWYRQAPGKERELVAAISRSGGNTYYADSVKGRFTISLDNAKNTVYLQMNSLKPEDTAVYYCAAALSAYVKWDYYYWGQGTQVTVSS
- polyreactivity (PSR sort gate): low polyreactivity

Sequence: QVQLLDSGGGLVQAGGSLRLSCDASGRTIDIYAMGWYRQAPGKERELVAAISSGGSTYYADSVKGRFTISRDNAKNTVYLQMNSLKPEDTAVYYCAVRWYDQVSRRGIGYYWGQGTQVTVSS
- polyreactivity (PSR sort gate): low polyreactivity

Sequence: QVQLVESGGGLVQAGGSLRLSCAASGRTFPGYTMGWSRQAPGKERELVAAISYSGGSTYYADSVKGRFTISRDNAKNTVYLQMYSLKPEDTAVYYCAAAYDRQRRYSWVGERYYWGQGTQVTVSS
- polyreactivity (PSR sort gate): high polyreactivity

Sequence: QVQLVESGGGLVQAGGSLRLSCAASGLIFGRNAMGWYRQAPGKERELVAAISYRGGSTYYADSVKGRFTISRDNAKNTVYLQMNSLKPEDTAVYYCNRVWYAWGTGYDYWGQGTQVTVSS
- polyreactivity (PSR sort gate): high polyreactivity

Sequence: QVQLVESGGGLVQAGGSLRLSCAASGSIFRNNAMGWYRQAPGKERELVAVISRRSGNTYYADSVKGRFTISRDNAKNTVYLQMNSLKPEDTAVYYCAADYSKSSIRGDYWGQGTQVTVSS
- polyreactivity (PSR sort gate): low polyreactivity

Sequence: QVQLVESGGGLVQAGGSLRLSCAASGIIFGRYAMGWYRQAPGKERELVAAINGSGGSTYYADSVKGRFTISRDNAKNTVYLQMNSLKPEDTAVYYCAANGFLRNGYWGQGTQVTVSS
- polyreactivity (PSR sort gate): high polyreactivity

Sequence: QVQLVESGGGLVQAGGSLRLSCAASGSTFTIYAMGGYRQAPGKERELVAAITRGGSTNYADSVKGRFTISRDNAKNTVYLQMNSLKPEDTAVYYCNKVVPGYSAAKYDYWGQGTQVTVSS
- polyreactivity (PSR sort gate): high polyreactivity

Sequence: QVQLVESGGGLVQAGGSLRLSCAASGSTLGGNAMGWYRRAPGKERELVAAITSSAGSTYYADSVKGRFTISRDNAKNTVYLQMNSLKPEDTAVYYCAADYSRDEYDYWGQGTQVTVSS
- polyreactivity (PSR sort gate): low polyreactivity

Sequence: QVQLVESGGGLVQAGGSLRLSCAASGRTFSRNAMGWYRQAPGNERELLAASSWSGGRTYYADSVKGRFTISRDNAKNTFYLQMNSLKPEDTAVYYCAAGGGTGGSRYDSWGQGTQVTVSS
- polyreactivity (PSR sort gate): high polyreactivity

Sequence: QVQLVESGGGLVQAGRSLRLICAASGRTFVYYAMGWYRPAPGKERELVAAITWSGGRTYYADSVKGRFTISRDNAKNTVYLQMNSLKQEDTAVYYCNRDQWPWESGYAYNYWGQGTQVTVSS
- polyreactivity (PSR sort gate): low polyreactivity

Sequence: QVQLVESGGGLVQAGGSLRLSCAASGRTFYSYAMGWYRQAPGKERELVAGITWSGTSTYYADSVKGRFTISRDNAKNTVYLQMNSLKPEDTAVYYCAAATLYSRYDYWGQGTQVTVSS
- polyreactivity (PSR sort gate): low polyreactivity

Sequence: QVQLVDSGGGLVQAGGSLRLSCAASGSTSQKNAMGWYRQAPGKERELVAAISSGGSTYYADSVKGRFTISRDNAKNNVYLQLNSLKPEDTAVYNCAAKDLRGLGYWGQGTQVTVSS
- polyreactivity (PSR sort gate): high polyreactivity

Sequence: QVQLVESGGGLVQAGGSLRLSCAASGITFYGYAMGWYRQAPGKEREFVAAISASGGSTYYADSVKGRFTISRDNAKNTVYLQMNSLKPEDTAVYYCAALVRGAYGYGYWGQGTQVTVSS
- polyreactivity (PSR sort gate): high polyreactivity

Sequence: QVQLVESGGGLVQAGGSLRLSCSASGLTFKENAMGWYRQAPGTERELVAAISKGGGSTFYADSVKGRFTISRDNAKNTVYLQMNTLKPEDTAVYYCNADVGYRGGEEDYWGQGTQVTVSS
- polyreactivity (PSR sort gate): low polyreactivity

Sequence: QVQLVESGGGLVQAGGSLRLSCAESGLTFWDYVMGWYRQAPGKEMELVAAISDSGGDTYYADSVKGRFTISRDNAKNTVYLQMNSLKPEDTAVYYCAAEYAEYVLEYYRLYEYWGQGTQVTVSS
- polyreactivity (PSR sort gate): high polyreactivity

Sequence: QVQLVETGGGLVQAGGSLRLSCAASGRTYVYNAMGWYRQAPGKERELVAAIDGGGDRTYYADSVKGRFTISRDNAKNTVYLQMNSLKPEDTAVYYCARDPGDTYYYSYQEGDYWGQGTQVTVSS
- polyreactivity (PSR sort gate): low polyreactivity

Sequence: QVQLEESAGGIVQAGGSLRLSCAGSGSTVSVYAMGWYRQAPGKEWELVARIRWSSGITYYADSVNGRFTISRDNAKNTVYLQLNSVKPEDTAVYYCNAQYRRAYLWFLYDYWGQGTQVTVSS
- polyreactivity (PSR sort gate): high polyreactivity

Sequence: QVQLVESGGGLVQAGGSLRLSCAASGSIFGAYTMGGYRQAPGKERELVAAISIGGSTNYADSVKGRFTISRDYAKNTVYLQMNSLKPEDSAVYYCNAEPDLEDWWWAIGLYDYWGQGTQVTVSS
- polyreactivity (PSR sort gate): high polyreactivity

Sequence: QVQLVEAGVGLVQAVGSLRLSCAASGYIFVVNAMGWYRQAPGKERELVASITWSGDNTYYADSVKGRFTISRDNAKNTVYLQMNSLKPEDTAVYYCAATIWIAYRGWYSDYNYWGQGTQVTVSS
- polyreactivity (PSR sort gate): low polyreactivity

Sequence: QVQLVESGGGLVQAGGSLRLSCAASGSIFSYYAMGWSRQEHGKERELVAAITRSGSTNYADSVKGRFTISRDNAKNTVYLQMNSLKPEDTAVYYCARRHYSSRVIYVSSKGGYWGQGTQVTVSS
- polyreactivity (PSR sort gate): high polyreactivity

Sequence: HVQLQERAAWCRRAGSLRQSCAASGNISHYYFMGWYRQAPGKERELVAAIAPGSNTYYADSVKGRFTISRDNAKNTVYLQMNSLKPEDTAVCFCAANSTQYTWFDYWGQGTQVPVSS
- polyreactivity (PSR sort gate): low polyreactivity

Sequence: QVQLVESGGGLVQAGGSLRLSCAASGSIFTKYAMGWYRQAPGKERELVAAISASGGSTYYADSVKGRFTISRDNAKNTVYLQMNSLKPEDTAVYYCAARYWVREDYWGQGTQVTVSS
- polyreactivity (PSR sort gate): high polyreactivity

Sequence: QVQLVESGGGLVQAGGSLRLSCAASGSTFYTYVMGWYRQAPGKERELVAAISSGGGNTYYADSVKGRFTISRDNAKYTVYLQMNSLKPEDTAVYYCAASHTSYYLRYGYWGQGTQVTVSS
- polyreactivity (PSR sort gate): high polyreactivity

Sequence: QVQLGESGGGLVQAGGSLRLSCSASMGWNSQAPGKERELVAITRTTRTYYADSVKGRFTISRDNAKNTVYLQMNSLKPEDTAVYYCAAPNGPSPYWYNYWGQGTQVTVSS
- polyreactivity (PSR sort gate): low polyreactivity

Sequence: QVQLVESGGGLVQAGGSLRLSCAASGRTFRRYTMGWYRQAPGKVRELVAAITTSGGSTYYADSVKGRFTISRDNAKNTVYLQMNRLKPEDTAVYYCAATRRYSGDYWGQGTQVTVSS
- polyreactivity (PSR sort gate): high polyreactivity

Sequence: QVQLVESGGCLVQAGGSLRLSCAASGSIFYRNAMGWYRQAPGKERELVAAISSDGSTNYADSVKGRFTISRDNAKNTVYLQMNSLKPEDTAVYYCAAPWTQILDYWGQGTQVTVSS
- polyreactivity (PSR sort gate): low polyreactivity

Sequence: QVQLVESGGGLVQAGGSLRLSCAASGSIFAENAMGCYRQAPGKERELVAAITRSGGSTYYADSVKGRFTISRDNAKNTVYLQMNSLKPEDTAVYYCAAREIASDDWGPDDYWGQGTQVTVSS
- polyreactivity (PSR sort gate): low polyreactivity

Sequence: QVQLVESGGGLVQAGGSLRLSCAASGYIFWENAMGWYRPAPGKERELVAAITVSGGGTYYADSVKGRFTISRDNAKNTVYLQRNSLKPEDTAVYYCAADEDNPWLWFYYWGQGTQVTVSS
- polyreactivity (PSR sort gate): low polyreactivity

Sequence: QVHIVESGGGLVQAGGSLRLSCGASGFTFIYAMGWYRQAHAKEREMVAAITRSGGSTYYADSVKGRFTISRDNAKNTVYSQMNILKPEDTAFYYCAARLRYQGRGYRYWGQGTQVTVSS
- polyreactivity (PSR sort gate): high polyreactivity

Sequence: QVQLVESGGGLVQAGGSLRLSCAASGFTFGGYAMGWYRQAPGKERDLVAAITGSGGNTIYADSVKGRFTISRDNAKNTFYLQINSLKPDDTAVYYCNARYTSHTHADCVYLFDYWGQGTQVNVSS
- polyreactivity (PSR sort gate): low polyreactivity

Sequence: QVQLVESGGGLVQAGGSLRLSCAASGSTFAGYAMGWYRQAPGKERELVAAISKRGTSTYYADSVKGRFTISRDNAKNTVYLQMNSLKPEDTAVYYCAARTYASYFKLYYWGQGTQVTVSS
- polyreactivity (PSR sort gate): high polyreactivity

Sequence: QVQLVESGGGLVQAGGSLRLSCAASGRIFDWNMGWYRQAPGKDRELVAGITFSVDSTYYADSVKGRFTISRDNAKNTVYLQMNSLKPEDTAYWGQGTQVTVST
- polyreactivity (PSR sort gate): low polyreactivity

Sequence: QVQLVESGGGLVQAGGSLRLSCAASGSTIWYYVMGWYRAAPGKERELVAAIRSNDGSTYYADSVKGRFTISRDNAKNTDYLQLNRLKPEDTAVYYCAADDWVYAQEYDYWGQGTQVTVSS
- polyreactivity (PSR sort gate): low polyreactivity

Sequence: QVHLVESGGGLVQAGGSLRLILAASGYIFSSNAMGWYRQAPGKEREFVADISSTGGSTYYADSVKGRFTISRDNAKNTVYCQMNILKPEDTGVYYCAAYIRRYFHYDYWGQGTQVTGSS
- polyreactivity (PSR sort gate): high polyreactivity
